Reference: US20170363643A1

What was measured:
[1] = biological target: His-tagged recombinant human SMN protein (ProteinTech, catalog # ag14333) (human) (UniProt Q16637); assay: BLI (BLItz), His-tagged SMN immobilised on the biosensor tip, antibody in solution
[2] = biological target: His-tagged recombinant human SMN protein (ProteinTech, catalog # ag14333) (human) (UniProt Q16637); assay: Erenna sandwich assay, capture MABE230 12.5 µg/mg MPs; Det Ab 500 ng/mL; SMN 0.06 pg/mL
[3] = biological target: His-tagged recombinant human SMN protein (ProteinTech, catalog # ag14333) (human) (UniProt Q16637); assay: Erenna sandwich assay, capture MABE230 12.5 µg/mg MPs; Det Ab 500 ng/mL; SMN 0.23 pg/mL
[4] = biological target: His-tagged recombinant human SMN protein (ProteinTech, catalog # ag14333) (human) (UniProt Q16637); assay: Erenna sandwich assay, capture MABE230 12.5 µg/mg MPs; Det Ab 500 ng/mL; SMN 0.46 pg/mL
[5] = biological target: His-tagged recombinant human SMN protein (ProteinTech, catalog # ag14333) (human) (UniProt Q16637); assay: Erenna sandwich assay, capture MABE230 12.5 µg/mg MPs; Det Ab 500 ng/mL; SMN 3.70 pg/mL
[6] = biological target: His-tagged recombinant human SMN protein (ProteinTech, catalog # ag14333) (human) (UniProt Q16637); assay: Erenna sandwich assay, capture MABE230 12.5 µg/mg MPs; Det Ab 500 ng/mL; SMN 7.41 pg/mL
[7] = biological target: His-tagged recombinant human SMN protein (ProteinTech, catalog # ag14333) (human) (UniProt Q16637); assay: Erenna sandwich assay, capture MABE230 12.5 µg/mg MPs; Det Ab 1000 ng/mL; SMN 0.12 pg/mL
[8] = biological target: His-tagged recombinant human SMN protein (ProteinTech, catalog # ag14333) (human) (UniProt Q16637); assay: Erenna sandwich assay, capture MABE230 12.5 µg/mg MPs; Det Ab 1000 ng/mL; SMN 0.23 pg/mL
[9] = biological target: His-tagged recombinant human SMN protein (ProteinTech, catalog # ag14333) (human) (UniProt Q16637); assay: Erenna sandwich assay, capture MABE230 12.5 µg/mg MPs; Det Ab 1000 ng/mL; SMN 0.46 pg/mL
[10] = biological target: His-tagged recombinant human SMN protein (ProteinTech, catalog # ag14333) (human) (UniProt Q16637); assay: Erenna sandwich assay, capture MABE230 12.5 µg/mg MPs; Det Ab 1000 ng/mL; SMN 1.85 pg/mL
[11] = biological target: His-tagged recombinant human SMN protein (ProteinTech, catalog # ag14333) (human) (UniProt Q16637); assay: Erenna sandwich assay, capture MABE230 12.5 µg/mg MPs; Det Ab 500 ng/mL; SMN 22.22 pg/mL
[12] = biological target: His-tagged recombinant human SMN protein (ProteinTech, catalog # ag14333) (human) (UniProt Q16637); assay: Erenna sandwich assay, capture MABE230 12.5 µg/mg MPs; Det Ab 1000 ng/mL; SMN 22.22 pg/mL
[13] = biological target: His-tagged recombinant human SMN protein (ProteinTech, catalog # ag14333) (human) (UniProt Q16637); assay: Erenna sandwich assay, capture MABE230 12.5 µg/mg MPs; Det Ab 500 ng/mL; SMN 200.00 pg/mL
[14] = biological target: His-tagged recombinant human SMN protein (ProteinTech, catalog # ag14333) (human) (UniProt Q16637); assay: Erenna sandwich assay, capture MABE230 12.5 µg/mg MPs; Det Ab 1000 ng/mL; SMN 200.00 pg/mL
[15] = biological target: endogenous SMN protein in human CSF (human) (UniProt Q16637); assay: Erenna sandwich assay, capture MABE230; human CSF sample 1, unspiked (endogenous SMN only)
[16] = biological target: endogenous SMN protein in human CSF (human) (UniProt Q16637); assay: Erenna sandwich assay, capture MABE230; human CSF sample 3, unspiked (endogenous SMN only)
[17] = biological target: endogenous SMN protein in human CSF (human) (UniProt Q16637); assay: Erenna sandwich assay, capture MABE230; human CSF sample 4, unspiked (endogenous SMN only)
[18] = biological target: His-tagged recombinant human SMN protein (ProteinTech, catalog # ag14333) (human) (UniProt Q16637); assay: Erenna sandwich assay, capture MABE230; SMN 2 pg/mL, MPs 10 µg/well, Det Ab 500 ng/mL, Cap Ab/MP 25 µg/mg
[19] = biological target: His-tagged recombinant human SMN protein (ProteinTech, catalog # ag14333) (human) (UniProt Q16637); assay: Erenna sandwich assay, capture MABE230; SMN 2 pg/mL, MPs 10 µg/well, Det Ab 100 ng/mL, Cap Ab/MP 12.5 µg/mg
[20] = biological target: His-tagged recombinant human SMN protein (ProteinTech, catalog # ag14333) (human) (UniProt Q16637); assay: Erenna sandwich assay, capture MABE230; SMN 2 pg/mL, MPs 10 µg/well, Det Ab 500 ng/mL, Cap Ab/MP 12.5 µg/mg
[21] = biological target: His-tagged recombinant human SMN protein (ProteinTech, catalog # ag14333) (human) (UniProt Q16637); assay: Erenna sandwich assay, capture MABE230; human CSF sample 5 spiked with recombinant SMN 5.0 pg/mL (endogenous SMN also present)
[22] = biological target: His-tagged recombinant human SMN protein (ProteinTech, catalog # ag14333) (human) (UniProt Q16637); assay: Erenna sandwich assay, capture MABE230; human CSF sample 3 spiked with recombinant SMN 10.0 pg/mL (endogenous SMN also present)

- Kd [1]: < 1 pM
- koff [1]: < 1e-07 s⁻¹
- kon [1]: 118000 M⁻¹ s⁻¹
- detected events (DE) (detected events) [2]: 91
- event photons (EP) (event photons) [2]: 14200
- detected events (DE) (detected events) [3]: 301
- event photons (EP) (event photons) [3]: 40000
- detected events (DE) (detected events) [4]: 562
- event photons (EP) (event photons) [4]: 77500
- detected events (DE) (detected events) [5]: 3190
- event photons (EP) (event photons) [5]: 497000
- detected events (DE) (detected events) [6]: 5960
- event photons (EP) (event photons) [6]: 1.05e+06
- detected events (DE) (detected events) [7]: 193
- event photons (EP) (event photons) [7]: 26300
- detected events (DE) (detected events) [8]: 330
- event photons (EP) (event photons) [8]: 44800
- detected events (DE) (detected events) [9]: 630
- event photons (EP) (event photons) [9]: 87400
- detected events (DE) (detected events) [10]: 2140
- event photons (EP) (event photons) [10]: 312000
- detected events (DE) (detected events) [11]: 12200
- event photons (EP) (event photons) [11]: 3.85e+06
- detected events (DE) (detected events) [12]: 13100
- event photons (EP) (event photons) [12]: 4.64e+06
- detected events (DE) (detected events) [13]: 9460
- event photons (EP) (event photons) [13]: 1.86e+07
- detected events (DE) (detected events) [14]: 9360
- event photons (EP) (event photons) [14]: 2.04e+07
- detected events (DE) (detected events) [15]: 330
- detected events (DE) (detected events) [16]: 278
- detected events (DE) (detected events) [17]: 375
- detected events (DE) (detected events) [18]: 2400
- detected events (DE) (detected events) [19]: 1050
- detected events (DE) (detected events) [20]: 2120
- detected events (DE) (detected events) [21]: 6070
- detected events (DE) (detected events) [22]: 9140
Substance: ProteinTech anti-SMN2 (catalog #60154-1-Ig) (antibody)
